Target: Meiothermus taiwanensis LonA (Lon AAA+ protease), wild type, full length (Meiothermus taiwanensis)
Assay: cryo-EM structure

Meiothermus taiwanensis LonA (Lon AAA+ protease), wild type, full length (enzyme)
stoichiometry N: 6
